Reference: patent US20220193191A1

Biological target: human interleukin-4 receptor alpha chain (IL-4Rα) (human) (UniProt P24394)
Assay: cell-based or functional assay

Eotaxin-3 IC50 (nM): inhibition of IL-4 induced eotaxin-3 release, human whole blood in vitro, 8 ng/mL IL-4 for 24 hours, ELISA: 1.5 nM
MDC IC50 (nM): inhibition of IL-4 induced MDC release, human whole blood in vitro, 8 ng/mL IL-4 for 24 hours, ELISA: 1.1 nM
TARC IC50 (nM): inhibition of IL-4 induced TARC release, human whole blood in vitro, 8 ng/mL IL-4 for 24 hours, ELISA: 0.8 nM
pSTAT IC50 (nM): inhibition of IL-4 stimulated STAT6 phosphorylation in CD3+ T cells, human whole blood in vitro, 8 ng/mL IL-4 for 15 minutes, FACS: 0.8 nM
B1: Reference IL-4Rα antibody (Dupilumab) (antibody, INN chains, looked up, V domains shown)
VH: EVQLVESGGGLEQPGGSLRLSCAGSGFTFRDYAMTWVRQAPGKGLEWVSSISGSGGNTYYADSVKGRFTISRDNSKNTLYLQMNSLRAEDTAVYYCAKDRLSITIRPRYYGLDVWGQGTTVTVSS
VL: DIVMTQSPLSLPVTPGEPASISCRSSQSLLYSIGYNYLDWYLQKSGQSPQLLIYLGSNRASGVPDRFSGSGSGTDFTLKISRVEAEDVGFYYCMQALQTPYTFGQGTKLEIKR
